Ends that are not written are not given here.
Experiments:
[1] = target: T1, Standard peptide LPGGYGLPYT (human); assay: Indirect or competitive ELISA with the standard peptide as calibrator
T1 construct: Synthetic decapeptide with a free C-terminus; also called calibrator peptide; selection peptide
T1 peptide: LPGGYGLPYT-OH

[2] = target: T2, Elongated peptide LPGGYGLPYTT (human); assay: Competitive ELISA on coated Biotin-LPGGYGLPYT
T2 construct: Standard peptide extended by one threonine at the C-terminus; also called C-extended elongated version
T2 peptide: LPGGYGLPYTT
Method: (§1) Based on the collected antibodies the ELP-3 assay was developed as competitive ELISA assay. A 96-well streptavidin-coated microtiter plate (Roche, Basel, Switzerland) was coated with 100 ul biotinylated screening peptide (Biotin-[…] (SEQ ID NO: 5)) dissolved in assay buffer for 30 min at 20° C. with shaking. Plates were washed five times in washing buffer (20 mM TRIS, 50 mM NaCl, pH 7). Sample/standard/control (20 ul) was added and followed by addition of (100 ul) monoclonal antibody and incubated for 3 h at 4° C. with shaking. After incubation, plates were washed five times in washing buffer. A volume of 100 ul of secondary HRP labeled goat anti-mouse antibody was added followed by 1 h incubation at 20° C. with shaking. Plates were then washed and TMB was added and the plate was analyzed by a SpectraMax M reader (Molecular Devices, Ca, USA) at 450 nm with 650 nm as the reference. A standard curve was plotted using a 4-parametric mathematical fit model. Each ELISA plate included kit controls to monitor inter-assay variation. All samples were measured within the range of the assay. All samples below the level of lower limit of quantification (LLOQ) were assigned the value of LLOQ.
(§2) Supernatants from antibody producing hybridomas were screened for reactivity against standard peptide, elongated peptide, and truncated peptide in an indirect ELISA. The peptide Biotin-[…] […]

[3] = target: T3, non-sense peptide PGGVPGGVFY; assay: Competitive ELISA on coated Biotin-…
T3 construct: Control peptide in the specificity test
T3 peptide: PGGVPGGVFY
Method: as §1, §2

[4] = target: T4, Human neutrophil elastase (HNE) protein (Abcam, ab91099) (human, UniProt P08246 30-247, limits assumed); assay: ELP-3 competitive ELISA on in vitro cleavage samples
T4 construct: also called protease control
T4 sequence (looked up): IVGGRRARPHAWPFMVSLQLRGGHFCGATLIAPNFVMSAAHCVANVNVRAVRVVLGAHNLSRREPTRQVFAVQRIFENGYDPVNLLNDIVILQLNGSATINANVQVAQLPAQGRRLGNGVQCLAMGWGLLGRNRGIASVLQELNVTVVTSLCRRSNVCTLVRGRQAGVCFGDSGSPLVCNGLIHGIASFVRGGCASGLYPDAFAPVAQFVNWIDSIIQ

[5] = target: T5, intact elastin (Sigma, E7152) (human, UniProt P15502 27-786, limits assumed); assay: as above
T5 construct: Uncleaved elastin control of the in vitro cleavage experiment
T5 sequence (looked up): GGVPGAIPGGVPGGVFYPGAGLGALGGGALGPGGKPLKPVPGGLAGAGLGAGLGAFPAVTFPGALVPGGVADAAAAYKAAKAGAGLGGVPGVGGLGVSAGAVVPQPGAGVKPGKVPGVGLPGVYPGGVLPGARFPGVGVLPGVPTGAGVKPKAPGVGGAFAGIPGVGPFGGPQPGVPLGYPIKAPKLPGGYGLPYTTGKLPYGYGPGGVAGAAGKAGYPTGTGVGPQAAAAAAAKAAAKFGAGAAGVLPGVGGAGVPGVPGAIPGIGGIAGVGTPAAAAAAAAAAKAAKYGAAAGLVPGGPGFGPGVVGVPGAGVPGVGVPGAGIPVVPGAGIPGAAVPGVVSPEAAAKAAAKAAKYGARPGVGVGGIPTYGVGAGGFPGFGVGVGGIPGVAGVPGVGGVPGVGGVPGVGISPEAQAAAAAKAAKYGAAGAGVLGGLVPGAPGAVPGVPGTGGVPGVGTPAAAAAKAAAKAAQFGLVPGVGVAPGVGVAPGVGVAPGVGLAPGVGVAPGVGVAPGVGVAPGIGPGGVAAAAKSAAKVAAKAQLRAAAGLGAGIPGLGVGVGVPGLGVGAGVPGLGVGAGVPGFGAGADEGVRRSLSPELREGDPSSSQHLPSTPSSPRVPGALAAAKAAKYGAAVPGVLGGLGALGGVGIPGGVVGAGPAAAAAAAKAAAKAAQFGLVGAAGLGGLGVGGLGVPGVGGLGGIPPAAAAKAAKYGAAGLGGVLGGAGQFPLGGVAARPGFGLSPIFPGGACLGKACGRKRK

[6] = target: T6, Proteinase 3 (PR3; EPC ML734) (UniProt P24158 28-248); assay: as above
T6 construct: also called protease control
T6 sequence (looked up): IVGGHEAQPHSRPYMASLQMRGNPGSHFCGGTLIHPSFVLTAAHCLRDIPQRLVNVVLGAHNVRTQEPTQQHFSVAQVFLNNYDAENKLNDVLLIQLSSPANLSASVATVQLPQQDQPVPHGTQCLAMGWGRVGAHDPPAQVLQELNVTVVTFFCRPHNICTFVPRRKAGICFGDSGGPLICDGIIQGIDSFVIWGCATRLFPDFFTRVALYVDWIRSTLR

binding result [1]: binds
binding result [2]: no binding
binding result [3]: no binding
binding result [4]: no binding
binding result [5]: no binding
binding result [6]: no binding
B1: monoclonal antibody clone NBH116/6A10-E7-D12 (antibody, mouse IgG1, kappa, V domains shown)
VH: EVKLVESGGGLVQPGDSLRLSCATSGFTFTDYYMSWVRQPPGKALEWLGFIRNKANGYTTEYSASVKGRFTISRDNSQSILYLQMNTLRAEDSATYYCARDIITTPSWFGYWGQGTLVTVSA
VL: DIQMNQSPSSLSASLGDTITITCHASQNINVWLSWYQQKPGNIPKLLIYKASNLHTGVPSRFSGSGSGTGFTLTISSLQPEDIATYYCQQGQSYPLTFGAGTKLELKR
notes: also called ELP-3 antibody; the selected antibody
